Results as given in the supplement of paper PMC12042874.
± gives the uncertainty stated by the source.

Test: amyloid nucleation score (Sup35N fusion, yeast selection) (log enrichment); library NNK3; higher = more nucleation; inactive = no reads after selection
Summary of the method: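 Peptides of 20 random codons fused to Sup35N were expressed in psi-negative yeast, induced 24 hours with 100 μM copper sulfate, then grown 7 days at 30°C on medium lacking adenine and uracil. Input and output plasmid inserts were Illumina-sequenced. Nucleation score is the DiMSum log enrichment of output over input reads, centred on the mode score of non-aggregating sequences, excluding sequences with under 100 input reads. Random libraries had three technical output replicates.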

| Substance | amyloid nucleation score |
| --- | --- |
| WHWCCDSNMMRVIFTWFFSL | inactive |
| WIAVPRVGTWVGEKMS | inactive |
| WIPAMVYFEHNTS | inactive |
| WIRIVRELGRSVR | inactive |
| WISFFT | inactive |
| WKLGLK | inactive |
| WKSPVYAYVWNSGPFRRQGK | inactive |
| WKWVRRYVRATIRSYSKDLD | inactive |
| WKYWIWVFMNATYMDCVGML | inactive |
| WLFSTSI | inactive |
| WLHINGVLYIFSMAGSALSV | inactive |
| WLIFELIVSELSTRHHKALD | inactive |
| WLLTM | inactive |
| WLMIMDFKCLSPRTRSWRRM | inactive |
| WLNVLNSYSDRSYLKETRLR | inactive |
| WLRLIA | inactive |
| WLVPR | inactive |
| WLWTLALNFTYKYFMCGKYK | inactive |
| WMFVRGDAGLRFVGG | 1.05 ± 0.21 |
| WMMRD | inactive |
| WMNGISKL | inactive |
| WMYKTWHRI | inactive |
| WNMSVRRISYEDL | inactive |
| WPSGFCYR | inactive |
| WQHSRSLDTSACCPT | inactive |

| Substance | amyloid nucleation score |
| --- | --- |
| WQQAYRDRTSRSYWQPICAT | inactive |
| WQTKIGYSGRLFDRTLGDAK | inactive |
| WQWVM | inactive |
| WRVFVIRYKKSMYAETGKVK | inactive |
| WRVLFSILSVTAVWATYAGL | inactive |
| WRVYVFNVLETYMLRVKWVG | inactive |
| WSFCGLYLNI | 1.62 ± 0.095 |
| WSILL | inactive |
| WSINAIGQTHINSEVLGVLF | inactive |
| WSISIGYFP | inactive |
| WSKVSHPYSALYSIMDRYT | inactive |
| WSSVFESLQSLMIIFRRLAD | inactive |
| WSTLKMVRVCYGASFSNVYM | inactive |
| WSWGTG | inactive |
| WSYREVHRRDLGLLSNGTCW | inactive |
| WSYTAKGVW | inactive |
| WTEGST | inactive |
| WTFNLFFNFRTFRLCCRKLV | 0.938 ± 0.096 |
| WTQAGQIRMRKRSR | inactive |
| WVCIW | 0.178 ± 0.72 |
| WVCLWVIVLYHIPVLNKLLS | inactive |
| WVCTYLTRFGRITGALRMDV | inactive |
| WVGGPQNQRPANWTFGMWFH | inactive |
| WVHVRPKHCTSGLVTKFANM | inactive |
| WVLDQRNSLSKCKLG | inactive |

| Substance | amyloid nucleation score |
| --- | --- |
| WVLEE | inactive |
| WVLLRWAGY | -0.611 ± 2.4 |
| WVYWRKSSILSTHRNIVKHW | inactive |
| WWMYSALGMYTDHEFACDVA | inactive |
| WWVIVGSAYVFDISIHFSSP | 1.24 ± 0.096 |
| WWVRQNVRWVLACVDFSTFS | inactive |
| WYACRIQ | 0.517 ± 0.23 |
| WYAKWKVN | inactive |
| WYGITEIP | inactive |
| WYGVSACYGWHNVAHSSRSL | 1.22 ± 0.18 |
| WYLIFGCRASWGSWR | -0.039 ± 0.61 |
| WYRHGIVEYDAIIWDESARR | inactive |
| WYRLLYKVEYNFKGWSVFVR | inactive |
| WYTIRDYRAFLSVM | inactive |
| YAFHKTDSCCVMCVRGPAPT | inactive |
| YAFLELFNFVLNLDLGVGYL | inactive |
| YAGFCPRGRSPKRG | inactive |
| YAIVGSRVVRLRSKNRRNLS | inactive |
| YALCPVRPGSQQGKLGVTFL | 0.503 ± 0.45 |
| YALMLVFERHSRAARSVGMG | inactive |
| YAMCIISIAFPLTL | inactive |
| YANCLDNIPDRVQDMYSCFS | inactive |
| YANQHSPEHQRLSSRLVGTN | inactive |
| YASYFSWEDCHG | inactive |
| YAVYRTPFVSKLAMFQLVQ | -1.04 ± 1.9 |

| Substance | amyloid nucleation score |
| --- | --- |
| YCAALGSSY | inactive |
| YCAGWFFMFSV | 0.586 ± 0.2 |
| YCFSWNHR | 0.116 ± 0.66 |
| YCKEGLQQDPIFSKFYEHLG | inactive |
| YCNMVWT | inactive |
| YCQVGINWFYGAGMKGYILS | inactive |
| YCSCNEGGLDPSLTMTL | inactive |
| YCSLMMMVYRDFFTLVNASV | inactive |
| YCWYRQMDNSRGGYYMWVS | inactive |
| YDAIVAPFSFSTLAVVITYG | inactive |
| YDCKLSRAVLRGV | inactive |
| YDCWFPHLSECLQLDTIFKA | inactive |
| YDKLSYKLPLF | inactive |
| YDLRCCTAVLFDLVESRATL | inactive |
| YDSKDF | inactive |
| YDSLFCLSSHLGWCNRALPE | 0.977 ± 0.13 |
| YDVSRDATDCRVYCCPFSRS | 1.23 ± 0.1 |
| YDWKNL | inactive |
| YELPDWSRYKQFVLLG | inactive |
| YEMIKFSKY | inactive |
| YERSRMSVWRNT | inactive |
| YFAWNRKVNYTRS | inactive |
| YFCLQNFRVFLGRYMIHNYL | inactive |
| YFFKTQISSDGTLSTYECME | inactive |
| YFGDPVLNASLVIVLHLYWL | 1.21 ± 0.078 |

| Substance | amyloid nucleation score |
| --- | --- |
| YFGYRLLAAERSSERVICFK | -0.352 ± 0.75 |
| YFIALCINSDKPPVHGVAVV | inactive |
| YFKSSFQKSLIDEVALKGWL | 0.224 ± 0.54 |
| YFLYMCALTHRWFWFKFFER | inactive |
| YFRSK | inactive |
| YFSISLLTSK | inactive |
| YFTFCDCLGQLMTRGRGCSV | inactive |
| YFVPWGFAKDRRKTHDLPAE | inactive |
| YGAFWGYSAGAVKLNENFSV | inactive |
| YGCWQRWSRQVGYFRGDKAC | inactive |
| YGDWIHATCVICSLSF | 3.39 ± 0.05 |
| YGFFKAARRMRIS | inactive |
| YGIYWSETFRNSLCKIVNIL | 0.66 ± 0.24 |
| YGMDIIWW | inactive |
| YGNFF | inactive |
| YGNGWTFWSFLWGSTNRQRT | inactive |
| YGNLFSYAVMSRDLVSWGPV | inactive |
| YGPQGVGLMGSLIAVISFIR | 1.12 ± 0.16 |
| YGRLPSWIKWFFLVVYIRVL | inactive |
| YGVESAYKCRNVYFLYWCML | 0.511 ± 0.13 |
| YGVYINEAVEVRGPHAYMTS | inactive |
